From patent US20240117018A1

Tests used:
Experiment in all cases: cell-based or functional assay
[1] = molecular target: HIV-1 Env of pseudovirus 1056_10_TA11_1826 (HIV-1)
[2] = molecular target: HIV-1 Env of pseudovirus 1394C9G1(Rev-) (HIV-1)
[3] = molecular target: HIV-1 Env of pseudovirus CNE30 (HIV-1)
[4] = molecular target: HIV-1 Env of pseudovirus HIV-0013095-2.11 (HIV-1)
[5] = molecular target: HIV-1 Env of pseudovirus HIV-16845-2.22 (HIV-1)
[6] = molecular target: HIV-1 Env of pseudovirus REJO4541.67 (HIV-1)
[7] = molecular target: HIV-1 Env of pseudovirus WITO4160.33 (HIV-1)
[8] = molecular target: HIV-1 Env pseudovirus 231965.c01 (HIV-1)
[9] = molecular target: HIV-1 Env pseudovirus A07412M1.vrc12 (HIV-1)
[10] = molecular target: HIV-1 Env pseudovirus BJOX009000.02.4 (HIV-1)
[11] = molecular target: HIV-1 Env pseudovirus T250-4 (HIV-1)
[12] = molecular target: HIV-1 Env pseudovirus X1193_c1 (HIV-1)
[13] = molecular target: Env of HIV-1 pseudovirus 1054_07_TC4_1499 (HIV-1)
[14] = molecular target: Env of HIV-1 pseudovirus 191955_A11 (HIV-1)
[15] = molecular target: Env of HIV-1 pseudovirus 6244_13_B5_4576 (HIV-1)
[16] = molecular target: Env of HIV-1 pseudovirus 7030102001E5(Rev-) (HIV-1)
[17] = molecular target: Env of HIV-1 pseudovirus CAAN5342.A2 (HIV-1)
[18] = molecular target: Env of HIV-1 pseudovirus Du422.1 (HIV-1)
[19] = molecular target: Env of HIV-1 pseudovirus PVO.4 (HIV-1)
[20] = molecular target: Env of HIV-1 pseudovirus Q23.17 (HIV-1)
[21] = molecular target: Env of HIV-1 pseudovirus SC05_8C11_2344 (HIV-1)
[22] = molecular target: Env of HIV-1 pseudovirus SC422661.8 (HIV-1)
[23] = molecular target: Env of HIV-1 pseudovirus WEAU_d15_410_787 (HIV-1)
[24] = molecular target: Env of HIV-1 pseudovirus WITO4160.33 (HIV-1)
[25] = molecular target: Env of HIV-1 pseudovirus ZM247v1(Rev-) (HIV-1)

3BNC117 (antibody)
IC50 [1]: 0.3 µg/mL | IC80 [1]: 1.82 µg/mL | IC50 [2]: > 50 µg/mL | IC80 [2]: > 50 µg/mL | IC50 [3]: 0.26 µg/mL | IC80 [3]: 0.85 µg/mL | IC50 [4]: 0.33 µg/mL | IC80 [4]: 2.53 µg/mL | IC50 [5]: 27.5 µg/mL | IC80 [5]: > 50 µg/mL | IC50 [6]: 0.01 µg/mL | IC80 [6]: 0.05 µg/mL | IC50 [7]: 0.01 µg/mL | IC80 [7]: 0.04 µg/mL | IC50 (Titer in TZM.bl cells) [8]: 0.05 µg/mL | IC80 (Titer in TZM.bl cells) [8]: 0.22 µg/mL | IC50 (Titer in TZM.bl cells) [9]: 0.02 µg/mL | IC80 (Titer in TZM.bl cells) [9]: 0.1 µg/mL | IC50 (Titer in TZM.bl cells) [10]: 0.4 µg/mL | IC80 (Titer in TZM.bl cells) [10]: 1.79 µg/mL | IC50 (Titer in TZM.bl cells) [11]: > 15 µg/mL | IC80 (Titer in TZM.bl cells) [11]: > 15 µg/mL | IC50 (Titer in TZM.bl cells) [12]: 0.06 µg/mL | IC80 (Titer in TZM.bl cells) [12]: 0.25 µg/mL

8ANC195 (antibody)
IC50 [1]: > 50 µg/mL | IC80 [1]: > 50 µg/mL | IC50 [2]: > 50 µg/mL | IC80 [2]: > 50 µg/mL | IC50 [3]: 7.52 µg/mL | IC80 [3]: 40.5 µg/mL | IC50 [4]: 0.32 µg/mL | IC80 [4]: 1.85 µg/mL | IC50 [5]: 3.3 µg/mL | IC80 [5]: 20.1 µg/mL | IC50 [6]: 0.08 µg/mL | IC80 [6]: 0.68 µg/mL | IC50 [7]: > 50 µg/mL | IC80 [7]: > 50 µg/mL | IC50 (Titer in TZM.bl cells) [8]: 2.36 µg/mL | IC80 (Titer in TZM.bl cells) [8]: 2.36 µg/mL | IC50 (Titer in TZM.bl cells) [9]: 2.25 µg/mL | IC80 (Titer in TZM.bl cells) [9]: 7.49 µg/mL | IC50 (Titer in TZM.bl cells) [10]: 0.64 µg/mL | IC80 (Titer in TZM.bl cells) [10]: 3.09 µg/mL | IC50 (Titer in TZM.bl cells) [11]: > 50 µg/mL | IC80 (Titer in TZM.bl cells) [11]: > 50 µg/mL | IC50 (Titer in TZM.bl cells) [12]: 0.27 µg/mL | IC80 (Titer in TZM.bl cells) [12]: 1.66 µg/mL

10E8 (antibody)
IC50 [13]: 0.046 µg/mL | IC80 [13]: 0.305 µg/mL | IC50 [14]: 0.68 µg/mL | IC80 [14]: 3.53 µg/mL | IC50 [15]: 0.086 µg/mL | IC80 [15]: 0.809 µg/mL | IC50 [16]: 6.71 µg/mL | IC80 [16]: > 10 µg/mL | IC50 [17]: 1.28 µg/mL | IC80 [17]: 9.28 µg/mL | IC50 [18]: 0.351 µg/mL | IC80 [18]: 1.88 µg/mL | IC50 [19]: 0.747 µg/mL | IC80 [19]: > 10 µg/mL | IC50 [20]: 1.64 µg/mL | IC80 [20]: 7.04 µg/mL | IC50 [21]: 0.665 µg/mL | IC80 [21]: 2.74 µg/mL | IC50 [22]: 0.445 µg/mL | IC80 [22]: 2.71 µg/mL | IC50 [23]: > 10 µg/mL | IC80 [23]: > 10 µg/mL | IC50 [24]: 0.094 µg/mL | IC80 [24]: 1.23 µg/mL | IC50 [25]: 0.506 µg/mL | IC80 [25]: 6.75 µg/mL

PG9 (antibody)
IC50 [13]: > 50 µg/mL | IC80 [13]: > 50 µg/mL | IC50 [14]: 0.053 µg/mL | IC80 [14]: 0.154 µg/mL | IC50 [15]: > 50 µg/mL | IC80 [15]: > 50 µg/mL | IC50 [16]: > 50 µg/mL | IC80 [16]: > 50 µg/mL | IC50 [17]: 4.6 µg/mL | IC80 [17]: 27 µg/mL | IC50 [18]: 0.614 µg/mL | IC80 [18]: 10.4 µg/mL | IC50 [19]: 10.6 µg/mL | IC80 [19]: > 50 µg/mL | IC50 [20]: 0.027 µg/mL | IC80 [20]: 0.082 µg/mL | IC50 [21]: 0.892 µg/mL | IC80 [21]: 4.28 µg/mL | IC50 [22]: 0.553 µg/mL | IC80 [22]: 7.05 µg/mL | IC50 [23]: 4.08 µg/mL | IC80 [23]: > 50 µg/mL | IC50 [24]: 0.01 µg/mL | IC80 [24]: 0.037 µg/mL | IC50 [25]: 0.112 µg/mL | IC80 [25]: 0.323 µg/mL

PG16 (antibody)
IC50 [13]: > 50 µg/mL | IC80 [13]: > 50 µg/mL | IC50 [14]: 0.009 µg/mL | IC80 [14]: 0.042 µg/mL | IC50 [15]: > 50 µg/mL | IC80 [15]: > 50 µg/mL | IC50 [16]: > 50 µg/mL | IC80 [16]: > 50 µg/mL | IC50 [17]: 1.83 µg/mL | IC80 [17]: 33 µg/mL | IC50 [18]: 0.261 µg/mL | IC80 [18]: 33.8 µg/mL | IC50 [19]: 15.3 µg/mL | IC80 [19]: > 50 µg/mL | IC50 [20]: 0.008 µg/mL | IC80 [20]: 0.043 µg/mL | IC50 [21]: 0.07 µg/mL | IC80 [21]: 1.62 µg/mL | IC50 [22]: 0.858 µg/mL | IC80 [22]: > 50 µg/mL | IC50 [23]: 0.435 µg/mL | IC80 [23]: > 50 µg/mL | IC50 [24]: 0.002 µg/mL | IC80 [24]: 0.012 µg/mL | IC50 [25]: 0.016 µg/mL | IC80 [25]: 0.189 µg/mL

VRC07 (antibody)
IC50 [1]: 0.239 µg/mL | IC80 [1]: 1.11 µg/mL | IC50 [2]: 0.112 µg/mL | IC80 [2]: 0.368 µg/mL | IC50 [3]: 0.326 µg/mL | IC80 [3]: 1.08 µg/mL | IC50 [4]: 0.017 µg/mL | IC80 [4]: 0.057 µg/mL | IC50 [5]: 1.21 µg/mL | IC80 [5]: 6.15 µg/mL | IC50 [6]: 0.011 µg/mL | IC80 [6]: 0.037 µg/mL | IC50 [7]: 0.042 µg/mL | IC80 [7]: 0.193 µg/mL | IC50 (Titer in TZM.bl cells) [8]: 0.085 µg/mL | IC80 (Titer in TZM.bl cells) [8]: 0.263 µg/mL | IC50 (Titer in TZM.bl cells) [9]: 0.11 µg/mL | IC80 (Titer in TZM.bl cells) [9]: 0.353 µg/mL | IC50 (Titer in TZM.bl cells) [10]: 0.806 µg/mL | IC80 (Titer in TZM.bl cells) [10]: 2.9 µg/mL | IC50 (Titer in TZM.bl cells) [11]: > 50 µg/mL | IC80 (Titer in TZM.bl cells) [11]: > 50 µg/mL | IC50 (Titer in TZM.bl cells) [12]: 0.037 µg/mL | IC80 (Titer in TZM.bl cells) [12]: 0.249 µg/mL
